Here are results for 2 molecules from publication PMC2120824 (The Journal of Cell Biology, 1996).

In this experiment the target is T1, Drosophila septin polypeptide Pnut (Drosophila (endogenous in embryos), UniProt P40797 1-539).
T1 sequence (looked up): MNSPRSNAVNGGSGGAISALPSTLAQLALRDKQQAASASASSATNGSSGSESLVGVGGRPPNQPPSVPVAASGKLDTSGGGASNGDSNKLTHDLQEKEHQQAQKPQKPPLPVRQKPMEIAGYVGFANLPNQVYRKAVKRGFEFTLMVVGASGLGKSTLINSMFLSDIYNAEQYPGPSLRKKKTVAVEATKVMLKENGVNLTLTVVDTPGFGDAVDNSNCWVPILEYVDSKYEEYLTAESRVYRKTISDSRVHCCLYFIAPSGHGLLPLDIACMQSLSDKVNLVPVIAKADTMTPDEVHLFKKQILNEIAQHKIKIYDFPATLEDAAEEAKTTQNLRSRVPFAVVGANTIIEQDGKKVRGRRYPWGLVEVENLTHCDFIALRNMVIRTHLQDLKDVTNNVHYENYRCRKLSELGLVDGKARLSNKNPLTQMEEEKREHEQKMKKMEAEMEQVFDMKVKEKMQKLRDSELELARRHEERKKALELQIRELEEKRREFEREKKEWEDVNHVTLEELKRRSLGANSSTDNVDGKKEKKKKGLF
Nature of the experiment: co-IP.

B1: Drosophila septin polypeptide Sep1 (natural protein, Drosophila (endogenous in embryos), UniProt P42207 1-361, looked up)
chain: MADTKGFSSIETPGYVGFANLPNQVHRKSVKKGFEFTLMVVGESGLGKSTLVNSLFLTDLYPERIIPDAIEKQKQTVKLEASTVEIEERGVKLRLTVVDTPGFGDAIDNSNSFGAILEYIDEQYERFLRDESGLNRRNIVDNRIHCCFYFISPFGHGLKPLDVEFMKKLHSKVNIVPVIAKADCLTKKEILRLKCRIMQEIESHGIKIYPLPDCDSDEDEDYKEQVKQLKEAVPFAVCGANTLLEVKGKKVRGRLYPWGVVEVENPDHCDFIKLRTMLITHMQDLQEVTQEVHYENYRSDRLAKGIKGKENGVKAERDSSSQVVSNSVLGEKDRILQEKEAELRRMQEMLAQMQARMQAQQ
As to B1, the “stoichiometry N” value was around 1.

B2: Drosophila septin polypeptide Sep2 (natural protein, Drosophila (endogenous in embryos), UniProt P54359 1-419, looked up)
chain: MSVEVDFVDKKEVHLRTLKQSGHVGFDSLPDQLVNKSVQNGFVFNVMCIGETGLGKSTLMDTLFNTSFESTPSPHTLPSVKLKAHTYELQESNVRLKLTICDTVGYGDQINKDDSFKAVVDYIDAQFENYLQEELKIKRSLVTCHDSRIHICLYFICPTGHGLKSLDLVCMKKLDSKVNIIPVIAKADTISKVELQRFKAKIIQELNANGVHIYQFPTDDETVAETNTSMNSHIPFAVVGSTEFIKVGNKLIRARQYPWGTVQVENETHCDFVKLREMLIRTNMEDMREKTHTRHYELYRQKRLEQMGFSDVDSDNKPISFQQTFEAKRSNHLAELQSKEEEVRQMFVQRVKEKEAELKESEKDLHAKFEKLKRDHAEEKRKLEESRKALEEDYLDFQRRKQQLATAHHTLTLGKSKKK
B2: the “stoichiometry N” value was around 1.
